Target: native circumsporozoite protein (CSP) on intact P. falciparum sporozoites (Plasmodium falciparum) (UniProt Q7K740)
Experiment: indirect immunofluorescence on intact P. falciparum sporozoites

Sequence of UniProt Q7K740 (Q7K740 19-374): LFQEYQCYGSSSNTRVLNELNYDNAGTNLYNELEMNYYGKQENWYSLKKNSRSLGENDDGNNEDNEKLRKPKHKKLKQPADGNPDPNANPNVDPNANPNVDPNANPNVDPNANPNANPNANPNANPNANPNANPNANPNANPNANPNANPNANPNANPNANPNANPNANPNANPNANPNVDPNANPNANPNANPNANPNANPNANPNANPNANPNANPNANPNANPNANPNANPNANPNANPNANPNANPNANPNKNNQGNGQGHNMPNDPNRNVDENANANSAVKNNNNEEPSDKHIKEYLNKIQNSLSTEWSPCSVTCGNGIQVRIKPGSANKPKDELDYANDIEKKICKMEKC

anti-P. falciparum NANP monoclonal antibody 2A10
dilution positive in immunofluorescence (reciprocal dilution): 16000

Source: patent US20100272753A1
